From publication PMC9652331, “Cryo-EM structures of human m6A writer complexes”

Target: HAKAI;WTAP;VIRMA;ZC3H13 (1106-1668);METTL3;METTL14 (Homo sapiens;Homo sapiens;Homo …, UniProt Q75N03;Q15007;Q69YN4;Q5T200;Q86U44;Q9HCE5 …, |||||)
Assay: s4U UV crosslinking MS; sites METTL3 F321; VIRMA P140, E1597, F1706; EMSA: 5 nM FAM-RNA, 20 mM HEPES pH 7.5, 100 mM KCl, 10% glycerol, 1 mM DTT, 25 C, 20 min; 8% native PAGE in 1x TBE at 4 C; Kd from loss of free RNA, Hill fit, n
Settings: protein: recombinant;recombinant;recombinant;recombinant;recombinant;recombinant, tags: untagged;N-6xHis;N-6xHis;N-Twin-Strep;N-GST-TEV, removed;N-6xHis-TEV

B1: s4U-ACTB-1 RNA (ssRNA)
RNA: GGCCCCUCCAUCGUCCACCGCAAAUGCUUCUAGGCGGACUAUGACUUAGUUGCGUUACACCCUUUCUUGACAAAACCUAACUUGCACAGAAAACA
modifications: 4-thiouridine (s4U); positions not given
- binding result: binds
